Reference: PMC12858348, “Structural basis underlying the autoinhibition of the formin FHOD1 and its phosphorylation-dependent activation” (The Journal of Biological Chemistry, 2025)

B1: His-tagged FHOD1-N3 (1–360) [human] / GST-fused FHOD1–DAD (1081–1145) [human] (parent complex)
chain 1: MAGGEDRGDGEPVSVVTVRVQYLEDTDPFACANFPEPRRAPTCSLDGALPLGAQIPAVHRLLGAPLKLEDCALQVSPSGYYLDTELSLEEQREMLEGFYEEISKGRKPTLILRTQLSVRVNAILEKLYSSSGPELRRSLFSLKQIFQEDKDLVPEFVHSEGLSCLIRVGAAADHNYQSYILRALGQLMLFVDGMLGVVAHSDTIQWLYTLCASLSRLVVKTALKLLLVFVEYSENNAPLFIRAVNSVASTTGAPPWANLVSILEEKNGADPELLVYTVTLINKTLAALPDQDSFYDVTDALEQQGMEALVQRHLGTAGTDVDLRTQLVLYENALKLEDGDIEEAPGAGGRRERRKPSSEE
chain 2: MPTVGPSTASPEEPPGSSLPSDTSDEIMDLLVQSVTKSSPRALAARERKRSRGNRKSLRRTLKSG

Variants of: B1
Assay: GST pull-down, SDS-PAGE, CBB staining, band quantification; parent: 100; read off a plot

percent of parent [%] | Variant
~95 | chain 2 V32A
~97 | chain 2 M28A
~96 | chain 2 V35A
~97 | chain 2 L31A

Variants of: B1
Assay: as above
Remark: another data set of the same source

percent of parent [%] | Variant
~26 | chain 2 R48D
~18 | chain 2 R59E
~16 | chain 2 R55D
~6 | chain 2 S51D, chain 2 S57D, chain 2 T61D

Variants of: B1
Assay: as above
Remark: another data set of the same source

percent of parent [%] | Variant
~66 | chain 1 D296R
~28 | chain 1 E331A
~66 | chain 1 D292R
~52 | chain 1 D290R
